The values below come from patent US20150320860A1 (published 2015).

Experiment [1] concerns the target T1, Aβ-derived diffusible ligands (ADDLs), soluble oligomers of synthetic Aβ1-42 (UniProt P05067 672-713).
T1 construct: domain: Aβ1-42; number of copies is not fixed; also called synthetic ADDLs; Aβ oligomers
Put plainly: competitive ELISA. Here is the method: The plates were incubated for one and half hours at room temperature. Both detection of residual antibody binding and the EC₅₀ calculations were determined as in the one-sided ELISA assay.
(In general: ELISA stands for enzyme-linked immunosorbent assay.)

The target in experiment [2] is T2, Aβ1-42 monomer (UniProt P05067 672-713).
T2 construct: domain: Aβ1-42
Put plainly: ELISA; IgG2.

In experiment [3] the target is T1, Aβ-derived diffusible ligands (ADDLs), …. Description: ELISA; IgG2.
Experiment [4] has the same target. Description: KINEXA; constant for Aβ1-40 over constant for ADDLs.
Experiment [5] concerns the target T3, Aβ1-40 monomer (UniProt P05067 672-711).
T3 construct: domain: Aβ1-40; also called Aβ40; monomer Aβ (Aβ1-40)
Put plainly: one-sided ELISA, Aβ1-40 coated at 100 pmol/well (FIG. 7A). Here is the method: (§1) EC₅₀ represents the half-maximal total Aβ oligomer binding. […] Next day, plates were washed five times with PBS+0.05% TWEEN 20 and blocked overnight with casein blocking buffer (Thermo Scientific, Waltham, Mass.) and 0.05% TWEEN 20. […] After two hours at room temperature incubation, the plates were washed and alkaline phosphatase-conjugated anti-human IgG (ThermoScientific, Waltham, Mass.) was added at 0.08 μg/ml. After incubation for 45 minutes at room temperature, the plates were washed and TROPIX CDP star (Applied Biosystems, Foster City, Calif.) was added. Luminescence was detected after […] on an ENVISION plate reader (PerkinElmer, Waltham, Mass.). Curve fits were completed using GraphPad Prism (GraphPad Software, Inc., San Diego, Calif.) software.

For experiment [6], the target named is T4, biotinylated ADDLs (bADDLs) (UniProt P05067 672-713, N-terminal biotin).
T4 construct: domain: Aβ1-42; Oligomer mixture; copies not fixed
Put plainly: ELISA on coated antigen, chemiluminescence; antibody stored at 4°, 1 month. As for the experimental part: (§2) High protein binding plates (Costar, Corning, Lowell, Mass.), were coated with target ligand in PBS overnight at 4° C. […] One the next day, plates were washed five times with PBS+0.05% TWEEN 20 (Sigma Aldrich, St. Louis, Mo.) and blocked overnight with casein blocking buffer (Thermo Scientific, Waltham, Mass.) and 0.05% TWEEN 20. […] After 2 hours at room temperature incubation, the plates were washed and alkaline phosphatase-conjugated anti-human IgG (ThermoScientific, Waltham, Mass.) was added at 0.08 μg/ml. After 45 minutes at room temperature incubation, the plates were washed and TROPIX CDP-Star chemiluminescent substrate (LIFE TECHNOLOGIES, Carlsbad, Calif.) was added. Luminescence was detected after 30 minutes on an ENVISION microplate reader (PerkinElmer, Waltham, Mass.). Curve fits were completed using […] PRISM software (GraphPad Software, Inc., San Diego, Calif.).

In experiment [7] the target is T3, Aβ1-40 monomer. Described as above. As for the experimental part: as §2
Experiment [8] concerns the target T1, Aβ-derived diffusible ligands (ADDLs), …. Description: three-pronged sandwich ELISA (Aβ forms captured by polyclonal M90/1), single antibody concentration; signal on ADDLs over signal on monomer Aβ. Here is the method: (§3) ELISA. […] Monoclonal antibodies diluted in BSA/TBS were incubated for 90 minutes at room temperature and detected with a VECTASTAIN® ABC kit to mouse IgG. The HRP label was visualized with BIO-RAD peroxidase substrate and read at 405 nm on a Dynex MRX-TC microplate reader.

Experiment [9] shares this target. Description: one-sided ELISA, Aβ oligomers coated at 50 pmol/well (FIG. 7A). As for the experimental part:
as §1

In experiment [10] the target is T4, biotinylated ADDLs (bADDLs). Description: ELISA on coated antigen, chemiluminescence; antibody stored at 25°, 1 month. As for the experimental part:
as §2

Experiment [11] addresses T3, Aβ1-40 monomer. The description is as above. Here is the method: as §2
Experiment [12] deals with T4, biotinylated ADDLs (bADDLs). Put plainly: cell-based assay: antibody pre-incubated with 500 nM bADDLs in the presence of excess Aβ monomer, block of bADDL binding to primary neurons. As for the experimental part:
(§4) As a control, the same concentration of heat-denatured antibody (98° C. for […]) was mixed with bADDLs. The antibody-bADDL mixtures were incubated in siliconized microcentrifuge tubes (Fischer Scientific, Pittsburgh, Pa.) at 37° C. for one hour with constant end-to-end rotation at a low speed. The mixtures were then applied to primary hippocampal and/or cortical cultures and incubated at 37° C. for one hour. The incubation was terminated by removing the culture medium. Cells were subjected to fixation and post-fixation treatments. Cells were then incubated with streptavidin conjugated with alkaline phosphate (AP) at 4° C. overnight, washed five times with PBS and reacted with the TROPIX CDP-Star chemiluminescent substrate (Life Technologies, Carlsbad, Calif.) at room temperature for 30 minutes. The bADDL binding intensity was measured and recorded with an ENVISION microplate reader (PerkinElmer, Waltham, Mass.).

Experiment [13] shares this target. Description: cell-based assay: antibody pre-incubated with 500 nM bADDLs, block of bADDL binding to primary neurons. Here is the method: as §4
The target is the same in experiment [14]. Description: ELISA on coated antigen, chemiluminescence; antibody at 0 timepoint. Here is the method:
as §2

The target in experiment [15] is T3, Aβ1-40 monomer. Described as above. As for the experimental part:
as §2

The target of experiment [16] is T3, Aβ1-40 monomer. Description: BIACORE (SPR). A general note: SPR reads the build-up and loss of mass on a sensor chip optically.
The target of experiment [17] is T1, Aβ-derived diffusible ligands (ADDLs), …. Put plainly: BIACORE (SPR).
Experiment [18] has as its target T3, Aβ1-40 monomer. Put plainly: KINEXA, equilibrium constant in solution.
In experiment [19] the target is T1, Aβ-derived diffusible ligands (ADDLs), …. Description: KINEXA, equilibrium constant in solution.
The target is the same in experiment [20]. Put plainly: one-sided ELISA (FIG. 7A). Here is the method: as §1
The target is the same in experiment [21]. Description: BIACORE (SPR); affinity for Aβ1-40 over affinity for ADDLs.
For experiment [22] the target is unchanged. Description: three-pronged sandwich ELISA (Aβ forms captured by polyclonal M90/1), single antibody concentration; signal on ADDLs over signal on fibrillar Aβ. Here is the method:
as §3

Experiment [23] addresses T4, biotinylated ADDLs (bADDLs). Description: ELISA on coated antigen, chemiluminescence; antibody stored at 40°, 1 month. As for the experimental part: as §2
For experiment [24], the target named is T3, Aβ1-40 monomer. Described as above. Here is the method:
as §2

B1: anti-ADDL antibody 19.3 (antibody, V domains shown)
VH: EVQLVESGGGLVQPGGSLRLSCAASGFTFSSFGMHWVRQAPGKGLEWVAYISRGSSTIYYADTVKGRFTISRDNAKNSLYLQMNSLRAEDTAVYYCARGITTALDYWGQGTLVTVSS
VL: DVVMTQSPLSLPVTPGEPASISCRSSQSIVHSNGNTYLEWYLQKPGQSPQLLIYKASNRFSGVPDRFSGSGSGTDFTLKISRVEAEDVGVYYCFQGSRLGPSFGQGTKLEIKR
notes: copies: 2 + 2
As to B1, the “fold higher concentration of Aβ1-40 than of Aβ oligomers needed to displace 50% of 19.3” value in experiment [1] was ~600 fold. Moreover, the EC50 (in general, the concentration needed to bring the measured effect to its halfway point) is 18 nM in [2]; 0.8 nM in [3]; ~4.3 nM in experiment [5]; 1.7 nM in experiment [6]; 16.3 nM in experiment [7]; ~1.7 nM in experiment [9]. Also, the EC50 in experiment [10] was 2.1 nM; in [11], 22.1 nM; in [14], 1.1 nM; in experiment [15] it was 10.1 nM; in [23], 5.9 nM; in experiment [24], 88.8 nM. For the same molecule, the “Ratio (Aβ monomer/ADDL)” value in [4] came out at 6.2; in [21] it was 31. Moreover, the “ADDL:Monomer binding ratio” value in experiment [8] was 2.5. Further, the IC50 – broadly, the concentration needed to halve the response being measured – was 15.3 nM in experiment [12] and 15.4 nM in experiment [13]. For the same molecule, the Kd (in general, the free concentration of one partner at which half of the binding sites on the other are occupied at equilibrium, for simple one-to-one binding) in [16] is 150 nM; in experiment [17], 4.8 nM; in experiment [18], 16.7 nM; in [19], 2.7 nM. The “fold greater potency for Aβ oligomers than for Aβ40 monomer” value in experiment [20] was ~3.7 fold. For the same molecule, in experiment [22], the “ADDL:Fibrillar binding ratio” value was determined as 2.

B2: antibody 19.3 N33T (antibody, IgG2, V domains shown)
VH: EVQLVESGGGLVQPGGSLRLSCAASGFTFSSFGMHWVRQAPGKGLEWVAYISRGSSTIYYADTVKGRFTISRDNAKNSLYLQMNSLRAEDTAVYYCARGITTALDYWGQGTLVTVSS
VL: DVVMTQSPLSLPVTPGEPASISCRSSQSIVHSTGNTYLEWYLQKPGQSPQLLIYKASNRFSGVPDRFSGSGSGTDFTLKISRVEAEDVGVYYCFQGSRLGPSFGQGTKLEIL
notes: also called 19.3T33
In the case of B2, the EC50 in experiment [2] came out at 244 nM; in experiment [3] it was 3.1 nM; in experiment [6], 11.6 nM; in [7], 307 nM; in experiment [10], 15.7 nM; in [14], 15.5 nM. Also, the EC50 in experiment [15] is 332 nM; in experiment [23], 23.5 nM; in [24] it was 96.3 nM.

B3: antibody 19.3 N33S (antibody, IgG2, V domains shown)
VH: EVQLVESGGGLVQPGGSLRLSCAASGFTFSSFGMHWVRQAPGKGLEWVAYISRGSSTIYYADTVKGRFTISRDNAKNSLYLQMNSLRAEDTAVYYCARGITTALDYWGQGTLVTVSS
VL: DVVMTQSPLSLPVTPGEPASISCRSSQSIVHSSGNTYLEWYLQKPGQSPQLLIYKASNRFSGVPDRFSGSGSGTDFTLKISRVEAEDVGVYYCFQGSRLGPSFGQGTKLEIL
notes: also called 19.3S33
With B3, the EC50 amounted to 150 nM in experiment [2]; 1.7 nM in [3]; 8.6 nM in experiment [6]; 59.1 nM in experiment [7]; 12.8 nM in [10]; 24.3 nM in experiment [11]. For the same molecule, the EC50 in experiment [14] was found to be 7.8 nM; in experiment [15] it was 55.1 nM; in experiment [23], 10.1 nM; in experiment [24], 29.9 nM.

B4: antibody 19.3 N33D (antibody, V domains shown)
VH: EVQLVESGGGLVQPGGSLRLSCAASGFTFSSFGMHWVRQAPGKGLEWVAYISRGSSTIYYADTVKGRFTISRDNAKNSLYLQMNSLRAEDTAVYYCARGITTALDYWGQGTLVTVSS
VL: DVVMTQSPLSLPVTPGEPASISCRSSQSIVHSDGNTYLEWYLQKPGQSPQLLIYKASNRFSGVPDRFSGSGSGTDFTLKISRVEAEDVGVYYCFQGSRLGPSFGQGTKLEIL
notes: Made as a control
For B4, the concentration for a half-maximal effect (EC50) was determined as 28 nM in experiment [2] and 0.82 nM in experiment [3].

B5: humanized anti-ADDL antibody h3B3 (antibody, V domains shown)
VH: EVQLVESGGGLVQPGGSLRLSCAASGFTFSSFGMHWVRQAPGKGLEWVAYISRGSSTIYYADTVKGRFTISRDNAKNSLYLQMNSLRAEDTAVYYCARGITTALDYWGQGTLVTVSS
VL: DVVMTQSPLSLPVTPGEPASISCRSSQSIVHSNGNTYLEWYLQKPGQSPQLLIYKASNRFSGVPDRFSGSGSGTDFTLKISRVEAEDVGVYYCFQGSHVPPTFGQGTKLEIK
notes: Parental humanized antibody; also called humanized 3B3; h3B3 (parental)
Consider B5, for which the Kd in experiment [16] was 105 nM; in experiment [18], 45 nM.
